According to US20250354133A1, “SIALIDASE FUSION MOLECULES AND RELATED USES” (The Scripps Research Institute, priority 2022, published 2025):

How the values were obtained:
[1] = tested on: HER2 positive SK-BR-3 human breast cancer cells; experiment: BiTE-induced T cell cytotoxicity by LDH release, SK-BR-3 target cells; type: cell-based
Experimental: To evaluate whether desialylation may enhance the susceptibility of tumor cells to BiTE-mediated cytotoxicity by T cells, we first constructed a BiTE molecule from a HER2-targeting scFv 4D5 and a human CD3-targeting scFv (4D5 BiTE). We then treated HER2 positive SK-BR-3 human breast cancer cells with a sialidase derived from Bifidobacterium longum subspecies infantis (B. infantis) to remove cell surface sialic acids. Following this procedure, treated cells were incubated with PBMCs from healthy human donors in the presence of 4D5 BiTE. Staining with FITC-Sambucus nigra agglutinin (SNA) that binds preferentially to sialic acid attached to terminal galactose in an a-2,6 linkage confirmed the success of cell surface desialylation. […] A similar trend was observed when 4D5 BiTE treatment was combined with a sialylation inhibitor, P-3Fax-Neu5Ac (FIG. 1, b). Next, we treated SK-BR-3 and MCF-7 breast cancer cells with 4D5 BiTE and hPBMCs in the presence or absence of B. infantis sialidase, respectively. […] The cytotoxicity enhancement is also observed with a different E: T ratio of 1:1 and the improvement of the BiTE-induced killing was sialidase dose-dependent.
(§1) Cell cytotoxicity measurement by lactate dehydrogenase (LDH) release: T cell cytotoxicity induced by BiTEs and BiTE-sialidase fusion proteins was measured by lactate dehydrogenase (LDH) release using CytoTox 96® Non-Radioactive Cytotoxicity Assay (Promega, G1780). tumor cells and hPBMCs (tumor cell:hPBMC=1:5) per well in […] media were exposed to different treatments and incubated in 96 well plates at 37° C. (unless different ratio was specified elsewhere). After 24 hours of coincubation, […] of media supernatant from each well was transferred to a new flat bottom 96 well plate and LDH release was measured using the supplier's protocol.

[2] = tested on: T cells; experiment: T cell surface activation markers (CD25, CD69, CD107a) by flow cytometry; type: cell-based, human; conditions: with 4D5 BiTEs
Experimental: (§2) Cytokine release and T cell surface activation marker measurement: For T cell cytokine release measurement, as with the cytotoxicity experiment, tumor cells and hPBMCs (tumor cell:hPBMC=1:5) were co-incubated per well in 96 well plates with different treatments in […] media at 37° C. for 24 hours. Then, […] of supernatant from each well was diluted in […] DPBS and used for IFN-γ, IL-2 and TNFα measurement. The ELISA measurement was done by ELISA MAX™ Sets. IFN-γ, IL-2 and TNFα kits (BioLegend) and the experiments were done according to the manufacturer's protocol. The exact concentration was calculated from a standard curve. For the cell surface activation marker measurement, tumor cells and hPBMCs (tumor cell:hPBMC=1:5) were co-incubated per well in 12 well plates with different treatments in 1 mL media at 37° C. for 24 hours. […] Cells were then washed twice with FACS buffer (PBS with 2.5% BSA) before being analyzed using flow cytometry. Data analysis and mean fluorescence intensity calculation were done by Flowjo. For the transcriptome analysis, 1.2 million hPBMCs and 0.1 million MDA-MB-231 cells were incubated together under the treatment of either 4 nM 4D5 BiTE or 4 nM 4D5 BiTE-sialidase (Three replicas for each condition). […]

[3] = tested on: T cells; experiment: T cell cytokine release (IFN-γ, IL-2, TNFα) by ELISA; type: cell-based, human; conditions: MCF7 cells incubated with hPBMCs and BiTE
Experimental: as §2

[4] = tested on: PSMA-positive PC3 cells; experiment: PSMA BiTE-induced T cell cytotoxicity, PC3 target cells; type: cell-based, human; conditions: sialidase and PSMA BiTEs added at the same time
Experimental: (§3) To evaluate whether desialylation may enhance the susceptibility of tumor cells to BiTE-mediated cytotoxicity by T cells, we first constructed a BiTE molecule from a HER2-targeting scFv 4D5 and a human CD3-targeting scFv (4D5 BiTE). We then treated HER2 positive SK-BR-3 human breast cancer cells with a sialidase derived from Bifidobacterium longum subspecies infantis (B. infantis) to remove cell surface sialic acids. Following this procedure, treated cells were incubated with PBMCs from healthy human donors in the presence of 4D5 BiTE. Staining with FITC-Sambucus nigra agglutinin (SNA) that binds preferentially to sialic acid attached to terminal galactose in an a-2,6 linkage confirmed the success of cell surface desialylation. […]
as §1, with “(unless different ratio was specified elsewhere).” left out

[5] = tested on: MCF-7 breast cancer cells; experiment: BiTE-induced T cell cytotoxicity, MCF-7 target cells; type: cell-based, human
Experimental: as §3
as §1, with “(unless different ratio was specified elsewhere).” left out

[6] = tested on: immune synapse between T cells and tumor cells; experiment: BiTE-induced immune synapse formation, confocal imaging of CD3 and actin; type: cell-based, human
Excerpt: Formation of the BiTE-induced immunological synapse (IS) between target cells and T cells is the essential mode of action of BiTEs. We hypothesized that the removal of cell-surface sialosides may promote stronger BiTE-induced IS formation between target tumor cells and T cells and thus better tumor cell killing. Accumulation of the TCR-CD3 complex and F-actin at the synapse is a hallmark of a stable and functional cytolytic IS in T cells. To test whether desialylation can promote IS formation, we imaged the IS formed between T cells and sialidase-treated and non-treated SK-BR-3 cells by staining F-actin and CD3. The resulting immunofluorescence was imaged by confocal microscopy. […] To assess the stability of the IS formed, we calculated the relative CD3 fluorescence intensity at the IS and the relative area of the IS.
Staining of human […] and actin for confocal imaging: Briefly, 0.4 million tumors cells were treated with 4 nM 4D5 BiTE or 4 nM 4D5 BiTE with 15 mg/ML sialidase in […] DMEM without the serum for 1 hr at 37° C. After the incubation, all the samples were washed twice using PBS before incubating with 0.4 million hPBMCs in 500 ml PBS for 30 min at 37° C. Then all the cells were transferred in 1 ml PBS to the coverslips in 12 well plates and incubated at 37° C. for 30 min to let cells attach to the coverslip. 1 ml 4% PFA was added to each well and incubated with shaking for 20 min at room temperature (RT) for cell fixing, and then each well was washed twice with ice cold PBS. […] PBST was used for washing for three times before anti-rabbit 488 (Invitrogen, 35553) and anti-mouse 594 ((Invitrogen, A-11005) secondary antibody was diluted and used for staining at RT for 30 min with shaking. Finally, samples were washed three times and each coverslip was transferred to a glass slide with mounting oil. Fingernail oil was used to seal the coverslip. Samples were analyzed on a Zeiss LSM880 with a 63× oil lens (NA 1.4). The relative mean fluorescent intensity (MFI) of […] accumulation and relative contact area of IS was calculated by imageJ.

[7] = tested on: CD19+ (Daudi) and EGFR+ (A549) cells; experiment: BiKE-sialidase desialylation selectivity in co-culture; type: cell-based, human; conditions: 10 nM, 1h, serum-free medium, SNA or MALII staining
Experimental: We compared the desialylation activity and selectivity of BiKE-CD19-Sia and BIKE-EGFR-Sia in a co-culture assay comprising CD19+ (Daudi) and EGFR+ (A549) cells, respectively. 1:1 ratio of daudi cells and A549 cells were treated with PBS, 10 nM BiKE-CD19-Sia or 10 nM BiKE-EGFR-Sia for 1h in serum-free medium, followed by staining with SNA-biotin (targets α2,6-linker sialoglycans) or MALII-biotin (targets α2,3-linker sialoglycans) in HBSS buffer for 30 min. Next, the cell mixtures were stained by streptavidin-APC and EGFR-Pc5.5.

[8] = vs 4D5 BiTEs+hPBMCs and sialidase+hPBMCs controls
[9] = sialidase-treated vs untreated SK-BR-3 cells, 4D5 BiTE

recombinant human CTLA-4: a high affinity ligand of CD80 [reference compound]
desialylation-enhanced cytolysis with added CTLA-4 ([1]; high concentrations of CTLA-4 added with sialidase and 4D5 BiTE): no change in the enhanced cytolysis

B1: B. infantis sialidase: sialidase derived from Bifidobacterium longum subspecies infantis, SEQ ID NO: 5 (protein, listed as Bifidobacterium longum)
chain: MTENGMMNTNNTVCGANHDGAMSLAAPGDYGVACYRIPALAEAPNGWILAAFDARPHNCQDAPQANSIVQRISKDGGRSFEPQHVVAAGHDGVDKYGYSDPSYVVDRQTGEVFLFFVKSYDAGFGTSQAGVDPSAREVLQAAVTSSIDNGVTWSEPRIITADITNSESWISRFASSGAGIQLTYGEHAGRLIQQYTIKELDGRYRAVSVFSDDHGATWHAGTPVGDHMDENKVVELSDGRVMLNSRSSDGNGCRYVAISRDGGATYGPVIRETQLPDPENNAQIARAFPDAPEGSAQAKVLLYSSSSPSDRIDGLVRVSIDDGKTWSAGRRFTTGPMAYSVIAALSHKAGGGYGLLYEGDNNNIMYTRISLDWLNGQLNVDGIGGFPLSGEGGC
4D5 BiTE-induced tumor cell killing by T cells after sialidase treatment ([1]; tumor cells pre-treated with sialidase, hPBMCs, effector:target 5:1, vs 4D5 BiTEs alone): significantly potentiated the 4D5 BiTE-induced tumor cell killing | killing with 4D5 BiTE and hPBMCs in presence of sialidase [1, 8]: stronger killing | T cell activation (CD25 and CD69 expression) on addition of sialidase [2]: significantly enhanced | IFN-γ secretion on addition of sialidase [3]: significantly enhanced | PSMA BiTE-induced cytotoxicity with sialidase [4]: stronger cytotoxicity enhancement | BiTE-mediated target cell killing with sialidase treatment ([5]; purified T cells as effectors): better BiTE-mediated target cell killing | killing with 4D5 BiTE and hPBMCs in presence of sialidase [5, 8]: stronger killing | BiTE-induced immune synapse formation ([6]; SKOV-3 cells and T cells, with sialidase treatment): better IS formed | CD3 accumulation at the immune synapse [6, 9]: significantly stronger CD3 accumulation | relative immune synapse area [6, 9]: larger IS area

B2: BIKE-EGFR-Sia: anti-EGFR BiKE-sialidase fusion, TAL4S format, SEQ ID NO: 28 (protein)
chain: QVQLQESGPGLVKPSETLSLTCTVSGGSVSSGSYYWSWIRQPPGKGLEWIGYIYYSGSTNYNPSLKSRVTISVDTSKNQFSLKLSSVTAADTAVYYCARNPISIPAFDIWGQGTMVTVSSGGGGSGGGGSGGGGSQPVLTQPPSVSVAPGKTARITCGGNNIGSKSVHWYQQKPGQAPVLVIYYDSDRPSGIPERFSGSNSGNTATLTISRVEAGDEADYYCQVWDTSSDHVLFGGGTKLTVLGGGGSQVQLVQSGAEVKKPGESLKVSCKASGYTFTSYYMHWVRQAPGQGLEWMGIINPSGGSTSYAQKFQGRVTMTRDTSTSTVYMELSSLRSEDTAVYYCARGSAYYYDFADYWGQGTLVTVSSGGGGSGGGGSGGGGSSYVLTQPSSVSVAPGQTATISCGGHNIGSKNVHWYQQRPGQSPVLVIYQDNKRPSGIPERFSGSNSGNTATLTISGTQAMDEADYYCQVWDNYSVLFGGGTKLTVLGGGGSGGGGSGGGGSGGGGSMTENGMMNTNNTVCGANHDGAMSLAAPGDYGVACYRIPALAEAPNGWILAAFDARPHNCQDAPQANSIVQRISKDGGRSFEPQHVVAAGHDGVDKYGYSDPSYVVDRQTGEVFLFFVKSYDAGFGTSQAGVDPSAREVLQAAVTSSIDNGVTWSEPRIITADITNSESWISRFASSGAGIQLTYGEHAGRLIQQYTIKELDGRYRAVSVFSDDHGATWHAGTPVGDHMDENKVVELSDGRVMLNSRSSDGNGCRYVAISRDGGATYGPVIRETQLPDPENNAQIARAFPDAPEGSAQAKVLLYSSSSPSDRIDGLVRVSIDDGKTWSAGRRFTTGPMAYSVIAALSHKAGGGYGLLYEGDNNNIMYTRISLDWLNGQLNVDGIGGFPLSGEGGC
selective desialylation activity [7]: selective desilylation activity
